Publication PMC12500691
pIC50, pKd: −log10 of the molar value. Values joined by “and” are separate entries in the source; they are usually repeats but may differ in a detail not shown here. Identical values can stand only once.

Legend:
[1] = target: SARS-CoV-2 SpikeHis (SARS-CoV-2 (Wuhan variant)) (UniProt P0DTC2); experiment: SPR
[2] = target: SARS-CoV-2 Spike_(Strep) (SARS-CoV-2 (Wuhan variant)) (UniProt P0DTC2); experiment: SPR
[3] = target: SARS-CoV-2 extended S1 subunit (SARS-CoV-2 (Wuhan variant)) (UniProt P0DTC2); experiment: SPR
[4] = target: SARS-CoV-2 Spike_(Strep) (SARS-CoV-2 (Wuhan variant)) (UniProt P0DTC2); experiment: negative stain electron microscopy

Sequence of human angiotensin converting enzyme 2 (Q9BYF1 20-611): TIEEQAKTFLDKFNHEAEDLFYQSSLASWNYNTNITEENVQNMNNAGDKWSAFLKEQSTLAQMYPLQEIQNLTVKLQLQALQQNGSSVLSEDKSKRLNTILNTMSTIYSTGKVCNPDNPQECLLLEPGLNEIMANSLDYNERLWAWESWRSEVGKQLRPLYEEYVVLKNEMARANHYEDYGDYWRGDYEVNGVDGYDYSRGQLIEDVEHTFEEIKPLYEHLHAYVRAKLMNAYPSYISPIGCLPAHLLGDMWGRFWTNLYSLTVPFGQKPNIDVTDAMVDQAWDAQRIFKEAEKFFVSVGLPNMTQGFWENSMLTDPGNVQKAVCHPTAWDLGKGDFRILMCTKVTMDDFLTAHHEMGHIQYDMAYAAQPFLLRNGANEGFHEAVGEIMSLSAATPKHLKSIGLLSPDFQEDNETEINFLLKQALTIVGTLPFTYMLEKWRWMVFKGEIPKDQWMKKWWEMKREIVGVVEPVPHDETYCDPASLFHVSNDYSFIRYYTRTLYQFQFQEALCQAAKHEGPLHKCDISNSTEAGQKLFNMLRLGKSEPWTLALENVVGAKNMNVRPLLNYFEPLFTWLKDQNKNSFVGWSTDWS

Row | Substance | pKd [1] | pIC50 [2] | pKd [2] | stoichiometry N [2] | pIC50 [3] | pKd [3] | stoichiometry N [4]
1 | LL-37 (peptide) | 6.39 | 6.17 | 6.39 | 6 | 6.80 | 6.70 | 
2 | gold-labeled LL-37 (peptide) |  |  |  |  |  |  | 4 and 7
3 | human angiotensin converting enzyme 2 (from UniProt Q9BYF1-1 20-611) (receptor) |  |  |  |  |  | 6.21 | 
